Experiments:
[1] = test system: HeLa cells; test: Flow cytometry of intracellular delivery of ZsGreen cargo; assay type: cell-based; conditions: Hela cells, 10, 20 or 50 μM, 4 hours
Procedure: Hela cells were inoculated onto a 24-well plate (10^5 cells/well) and cultured in a DMEM medium containing 10% FBS for 24 hours. After washing with PBS, the cells were treated with ZsGreen or the CPP22-ZsGreen fusion protein at 0, 10, 20 or 50 μM for 4 hours. Then, after washing the cells twice with PBS and incubating with trypsin (1 mg/mL) for 15 minutes, the peptides bound to the cell surface were removed. The cells were centrifuged at 1,200 rpm for 5 minutes, washed twice with PBS, and then suspended in a PBS buffer containing 10% non-enzymatic cell dissociation solution. The fluorescence intensity of the internalized peptide was measured using a BD LSR II flow cytometer (BD Biosciences, USA).

[2] = test system: HeLa cells; test: Confocal microscopy of intracellular delivery of ZsGreen cargo; assay type: cell-based; conditions: 50 μM, 30 minutes
Procedure: A DMEM medium containing 10% FBS was prepared on an 8-well Lab-Tek II chamber slide (Thermo Fisher Scientific, USA). Hela cells were dispensed in each well at a density of 10^4 cells/well and cultured for 24 hours. The cells were washed twice with PBS and then cultured for 30 minutes after replacing the medium with one containing 50 μM of the ZsGreen or the CPP22-ZsGreen fusion protein. The cells were washed with PBS, treated with DAPI, and then washed with PBS after reaction for 5 minutes (for observation of cell nuclei). Then, the stained cells were observed by confocal microscopy.

[3] = molecular target: IIB RNA; test: Fluorescence anisotropy analysis of cRev with Cy3-labeled IIB RNA; assay type: binding, HIV-1; conditions: Cy3-IIB RNA 250 nM, room temperature, pH 6.0; read-out: Kd (dissociation constant) for the interaction with IIB RNA
Procedure: IIB RRE labeled with […] Cy3 was dissolved in a binding buffer (25 mM sodium phosphate, 50 mM NaCl, pH 6.0). The peptide (sample) of various concentrations was sequentially added to 250 nM RNA. The final concentration of the peptide was 600 nM. After the mixing, the sample was incubated for 1 minute. There was 1-minute incubation time between all the steps. All the experiments were performed at room temperature. The dissociation constant (Kd) was calculated using the Origin software.
In order to analyze the function of cRev, the cRev of Preparation Example 2 was mixed with Cy3-labeled IIB RNA and then fluorescence anisotropy analysis was performed.

[4] = test system: wild-type IIB (RRE IIB WT); test: EMSA with 32P-labeled wild-type IIB and mutant IIB; assay type: binding, HIV-1
Procedure: A peptide (sample) and ^32P-labeled RNA were mixed with a binding buffer (10 mM HEPES (pH 7.5), 100 mM KCl, 1 mM MgCl2, 0.5 mM EDTA, 10% glycerol and […] yeast tRNA). After serially diluting the peptide with the binding buffer, RNA (10 pM) of the same volume was added. The resulting mixture was incubated at room temperature for 30 minutes and electrophoresis was conducted at 4° C. on 10% polyacrylamide gel. The […] was visualized with FLA-7000 Phosphor Imager (GE Healthcare Life Sciences, USA) and analyzed using the Multi Gauge software.
In order to analyze the binding affinity of cRev for IIB RNA, the /Rev of Preparation Example 1 or the cRev of Preparation Example 2 was mixed with ^32P-labeled wild-type IIB and ^32P-labeled mutant IIB, respectively, and analyzed by EMSA (electrophoretic mobility shift assay). The mutation of IIB is the mutation in the G46-C74 base pairs of wild-type IIB.

Molecule	intracellular delivery (flow cytometry) [1]	intracellular delivery (confocal microscopy) [2]	Kd [3]	binding affinity for wild-type IIB compared with /Rev ([4]; wild-type IIB (RRE IIB WT))	recognition of IIB RNA (EMSA) ([4]; wild-type IIB versus mutant IIB)
ZsGreen: green fluorescent protein, expressed from bacterial cells, used as a comparative example (protein) MAQSKHGLTKEMTMKYRMEGCVDGHKFVITGEGIGYPFKGKQAINLCVVEGGPLPFAEDILSAAFMYGNRVFTEYPQDIADYFKNSCPAGYTWDRSFLFEDGAVCICNADITVSVEENCMYHESKFYGVNFPADGPVMKKMTDNWEPSCEKIIPVPKQGILKGDVSMYLLLKDGGRLRCQFDTVYKAKSVPRKMPDWHFIQHKLTREDRSDAKNQKWHLTEHAIASGSALP	no intracellular delivery was observed	not delivered into the cells	–	–	–
CPP22-ZsGreen: fusion protein wherein CPP22 is fused with the ZsGreen protein (protein) GSHMASAAAQARRNAAAQARRNAAAQARRNAAAQARRNAAAQARRNAAAGSGSGSGSGPVATMAQSKHGLTKEMTMKYRMEGCVDGHKFVITGEGIGYPFKGKQAINLCVVEGGPLPFAEDILSAAFMYGNRVFTEYPQDIADYFKNSCPAGYTWDRSFLFEDGAVCICNADITVSVEENCMYHESKFYGVNFPADGPVMKKMTDNWEPSCEKIIPVPKQGILKGDVSMYLLLKDGGRLRCQFDTVYKAKSVPRKMPDWHFIQHKLTREDRSDAKNQKWHLTEHAIASGSALP	delivered to and accumulated in the cells at a significantly high level	successfully delivered into and accumulated in the cells at a significant level	–	–	–
CRGGDEDALKAARAIKFLYQSNPPPNPEGTRQARRNRRRRWRERQRQIHSASERIASTLGGMRM (protein, cyclized via intein; The peptide is circular., cyclic, oligomerization-defective Rev N-terminal domain protein made by intein-mediated cyclization) CRGGDEDALKAARAIKFLYQSNPPPNPEGTRQARRNRRRRWRERQRQIHSASERIASTLGGMRM	–	–	34 nM	significantly higher binding affinity	specifically recognizes IIB RNA

Reference: patent publication US20240368230A1, “CELL-PENETRATING PEPTIDES COMPRISING MULTIPLE 5-MER ALPHA-HELIX FRAGMENTS AND USES THEREOF” (ArtProBio Co., Ltd., priority 2023, published 2024)
